Where two headings read alike, the source gives them in different places.
What was measured:
[1] = target: rat cardiac troponin T (cTnT) (rat) (UniProt P50753); experiment: SEC-MALS
[2] = target: nonphosphorylated rat cardiac troponin complex (cTn-0P), Alexa647-labelled (rat) (UniProt Q4PP99); experiment: MST
[3] = target: Ser22/23 bisphosphorylated rat cardiac troponin complex (cTn-2P), Alexa647-labelled (rat) (UniProt Q4PP99); experiment: MST
[4] = target: N-terminal lobe of cardiac troponin C (NcTnC), Alexa647-labelled; experiment: MST
[5] = target: nonphosphorylated rat cardiac troponin complex (cTn-0P), Alexa647-labelled (rat) (UniProt Q4PP99); experiment: MST; remark: listed apart in the source
[6] = target: Ser22/23 bisphosphorylated rat cardiac troponin complex (cTn-2P), Alexa647-labelled (rat) (UniProt Q4PP99); experiment: MST; remark: listed apart in the source

stoichiometry N [1]	Kd [2] [µM]	Kd [3] [µM]	Kd [4] [µM]	Kd [5] [µM]	Kd [6] [µM]	Substance
1						rat cardiac troponin C (cTnC) (from UniProt Q4PP99 1-161) (natural protein)
	20	20	5	20	20	nonphosphorylated N-terminal fragment of rat cMyBP-C encompassing domains C0, C1, m-motif and C2 (cC0C2-0P) (domain or fragment)

— paper PMC9826837
